Patent US20180071413A1 (INSERM INSTITUT NATIONAL DE LA SANTE ET DE LA RECHERCHE …, published 2018)
Values belong to the binder of their own block, whether it stands above or below them.

Columns and labels:
human PD-L1 [1] = target: T1, human PD-L1 (human, UniProt Q9NZQ7 19-290); assay: Scatchard analysis on cells, 4 h on ice, 3-3000 pM ^111In-PD-L1.3.1, non-specific binding determined with 100 nM unlabeled antibody; 111In-labeled antibody, Scatchard analysis; MDA-MB-231 cells by paragraph 130
T1 construct: whole, on cells; Target presented on human breast cancer cell lines; The quantitative assays (IRF, IC50, Kd) used MDA-MB-231 cells; also called CD274; Programmed Cell Death 1 Ligand 1
Procedure: (§1) Cells were cultured to confluency in six-well plates and were incubated for 4 h on ice with increasing concentrations ¹¹¹In-PD-L1.3.1 (3-3000 pM) in 1 ml RPMI1640 containing 0.5% BSA. Non-specific binding was determined by co-incubation with 100 nM PD-L1.3.1. After incubation, cells were washed with PBS and the cell-associated activity was measured in a shielded well-type gamma counter. The specific binding (total binding—nonspecific binding) was plotted against the bound/free ratio. Data were analyzed by linear regression to determine PD-L1 receptor density per cell and to determine the Kd of ¹¹¹In-PD-L1.3.1.

human PD-L1 [2] = target: T1, human PD-L1; assay: saturation binding of ^111In-PD-L1.3.1 on cells, 4 h on ice, called Scatchard analysis in the filing; the cell line is not printed on the sheet (MDA-MB-231 used in the subsequent binding assays)
Procedure: as §1

human PD-L1 [3] = target: T1, human PD-L1; assay: competition on MDA-MB-231 cells, 4 h on ice: unlabeled PD-L1.3.1 (1-1000 pM) against 20 pM ^111In-PD-L1.3.1, gamma counter; unlabeled antibody, competition on MDA-MB-231 cells
Procedure: MDA-MB-231 cells were cultured to confluency in six-well plates. The 50% inhibitory concentration (IC₅ₒ) of PD-L1.3.1 blocking of ¹¹¹In-PD-L1.3.1 binding was determined by incubating the cells for 4 h on ice in 1 ml RPMI1640 0.5% BSA, containing 20 pM ¹¹¹In-PD-L1.3.1 (1 kBq) and increasing concentrations of unlabeled PD-L1.3.1 (1-1000 pM). After incubation, cells were washed with PBS and the cell-associated activity was measured in a gamma counter. The IC₅₀ was defined as the antibody concentration that was required to inhibit binding of the radio labeled antibody by 50%. IC₅₀ values were calculated using GraphPad Prism.

T1 sequence (Q9NZQ7 19-290): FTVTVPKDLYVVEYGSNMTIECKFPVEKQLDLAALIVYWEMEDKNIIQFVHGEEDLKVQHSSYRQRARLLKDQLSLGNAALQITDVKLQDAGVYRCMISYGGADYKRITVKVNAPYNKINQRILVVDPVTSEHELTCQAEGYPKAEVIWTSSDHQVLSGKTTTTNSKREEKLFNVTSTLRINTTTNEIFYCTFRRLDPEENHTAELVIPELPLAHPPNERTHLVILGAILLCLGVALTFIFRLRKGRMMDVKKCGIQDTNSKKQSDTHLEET

Kd (human PD-L1 [1]): 970 pM | Kd (human PD-L1 [2]): 1000 pM
B1: ^111In-DTPA-PD-L1.3.1 (antibody, V domains shown)
VH: EVQLQQSGTELVKPGASVKLSCTTSGFNIQDTYMHWVKQRPEQGLEWIGWIDPANGNTKYDPKFQGKATIIADTSSNTAYLQLRGLTSEDTAVYYCARSGVSTAHFDYWGQGTTLTVSS
VL: QIVLSQSPAILSASPGEKVTMTCRASSSVSFMHWYQQKPGSSPKPWIYATSNLASGVPTRFSGSGSGTSYSLTLSRVEAEDAATYYCQQWSSYPRTFGGGTKLEIK
modifications: ITC-DTPA conjugate chelating ^111In; conjugated residues and chain not stated

IC50 (human PD-L1 [3]): 150 pM
B2: PD-L1.3.1 antibody (unlabeled) (antibody, V domains shown)
VH: B1 VH
VL: B1 VL
notes: also called unlabeled PD-L1.3.1
